Reference: publication PMC2713044

Molecular target: Hen egg white lysozyme (HEL) (UniProt P00698)
Assay: isothermal titration calorimetry
Settings: pH 8.0, 25.0 °C, no added salt (10 mM buffer only), 10 mM Tris

UniProt P00698, sequence (P00698 whole entry): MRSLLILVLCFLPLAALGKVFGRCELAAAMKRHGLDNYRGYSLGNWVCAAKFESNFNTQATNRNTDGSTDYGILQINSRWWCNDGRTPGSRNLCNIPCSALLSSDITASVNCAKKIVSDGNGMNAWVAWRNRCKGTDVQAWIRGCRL

ΔH: -20.5 kcal/mol
Substance: HyHEL-10 (HH10) monoclonal antibody, whole IgG1
